The results in this text go back to paper PMC6783512, “Dimethylaminomicheliolide (DMAMCL) Suppresses the Proliferation of Glioblastoma Cells via Targeting Pyruvate Kinase 2 (PKM2) and Rewiring Aerobic Glycolysis” (Frontiers in Oncology, 2019).

This data set deals with the molecule itself. Description: SEC + AUC; 2 mL of 3 mg/mL purified PKM2 on Superdex 200 pg 16/600, 1 mL/min, UV 280 nm; peaks identified by analytical ultracentrifuge (results: sucrose gradient ultracentrifugation); monomer and tetramer fractions isolated.

B1: recombinant PKM2 C424S (enzyme)
chain: not shown
notes: Pyruvate kinase M2 (PKM2) with C424S; likely made in E. coli like the wild type; also called rPKM2 protein with C424 mutation; source: purified (plasmid pET28a-PKM2 C424S)
In general, stoichiometry N refers to a count of units in the complex or per binding partner. For the protein B1, the “stoichiometry N” value was determined as 4.
